91 sequences from the supplement of paper PMC9112550, “Optimization of the antimicrobial peptide Bac7 by deep mutational scanning” (BMC Biology, 2022) can be followed below.

The data set has as its system Escherichia coli TOP10. The experiment in a line: shrunken log2 fold change of peptide-encoding DNA abundance (4.5 h post-induction vs induction); higher = less antimicrobial activity (less host growth inhibition). Particulars: time post-induction: 4.5 h; library: site-saturation at positions 5, 18, 19, 20.
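Note: peptides expressed intracellularly from a pBAD plasmid library in pooled LB shake-flask culture, induced with 0.3% L-arabinose, DNA abundance read by NGS, three biological replicates, DESeq2 with apeglm shrinkage.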

For the sequence RRIRARPPRLPRPRPRPWDVPRP, the “shrunken log2 fold change” value amounted to 0.246.

In the case of RRIRIRPPRLPRPRPRPPMQPRP, the “shrunken log2 fold change” value is -0.193. Consider RRIRDRPPRLPRPRPRPKGRPRP, for which the “shrunken log2 fold change” value was determined as 0.218. With RRIRYRPPRLPRPRPRPGRVPRP the figure was -0.106; with RRIRLRPPRLPRPRPRPGEVPRP, 0.117.

With RRIRFRPPRLPRPRPRPLSNPRP, the “shrunken log2 fold change” value was -0.504.

Consider RRIRDRPPRLPRPRPRPIWRPRP, for which the “shrunken log2 fold change” value turned out to be 0.235. On to RRIRWRPPRLPRPRPRPLGLPRP, for which the “shrunken log2 fold change” value turned out to be 0.116.

Take RRIRRRPPRLPRPRPRPDKGPRP: the “shrunken log2 fold change” value is -0.0101.

As to RRIRTRPPRLPRPRPRPCKQPRP, the “shrunken log2 fold change” value was -0.254. With RRIRWRPPRLPRPRPRPSELPRP the figure was 0.0129.

Regarding RRIRIRPPRLPRPRPRPWSAPRP, the “shrunken log2 fold change” value is -0.649.

Take RRIRRRPPRLPRPRPRPNYWPRP: the “shrunken log2 fold change” value was -0.19. In the case of RRIRVRPPRLPRPRPRPCYCPRP it was -0.32. With RRIRGRPPRLPRPRPRPMRGPRP, the “shrunken log2 fold change” value came to 1.09. As for RRIRIRPPRLPRPRPRPPNKPRP, the “shrunken log2 fold change” value was -0.36. For the sequence RRIRPRPPRLPRPRPRPDHYPRP, the “shrunken log2 fold change” value was -0.203. In the case of RRIRFRPPRLPRPRPRPKKKPRP it was -0.00928; in that of RRIRTRPPRLPRPRPRPTVVPRP, 0.0732; in that of RRIRMRPPRLPRPRPRPRPWPRP, 0.996.

Turning to RRIRIRPPRLPRPRPRPHTTPRP, the “shrunken log2 fold change” value is 0.0536.

In the case of RRIRYRPPRLPRPRPRPSYCPRP, the “shrunken log2 fold change” value is -0.407.

Take RRIRYRPPRLPRPRPRPWIEPRP: the “shrunken log2 fold change” value was -0.866. With RRIRRRPPRLPRPRPRPKLIPRP the figure was -0.395; with RRIRARPPRLPRPRPRPRKYPRP, 0.0773.

For the sequence RRIRERPPRLPRPRPRPDHPPRP, the “shrunken log2 fold change” value was -0.0179. In the case of RRIRKRPPRLPRPRPRPENPPRP it was 0.126.

Regarding RRIRQRPPRLPRPRPRPTKKPRP, the “shrunken log2 fold change” value is -0.0835. In the case of RRIRRRPPRLPRPRPRPGNWPRP it was 0.393; in that of RRIRPRPPRLPRPRPRPHDGPRP, -0.0292; in that of RRIRHRPPRLPRPRPRPSLHPRP, -0.652. In the case of RRIRARPPRLPRPRPRPHKCPRP it was -0.205; in that of RRIRPRPPRLPRPRPRPWLLPRP, -0.111; in that of RRIRWRPPRLPRPRPRPWSMPRP, -0.269.

With RRIRLRPPRLPRPRPRPTPNPRP, the “shrunken log2 fold change” value was 0.403.

For RRIRKRPPRLPRPRPRPMAPPRP, the “shrunken log2 fold change” value was 0.0811. In the case of RRIRWRPPRLPRPRPRPWQQPRP it was -0.01; in that of RRIRARPPRLPRPRPRPCASPRP, 0.158.

In the case of RRIRLRPPRLPRPRPRPDEAPRP, the “shrunken log2 fold change” value was found to be 0.189.

Turning to RRIRCRPPRLPRPRPRPLKFPRP, the “shrunken log2 fold change” value is -0.162. With RRIRVRPPRLPRPRPRPFFKPRP, the “shrunken log2 fold change” value was determined as 0.0447. Turning to RRIRWRPPRLPRPRPRPHFPPRP, the “shrunken log2 fold change” value was found to be 0.064.

In the case of RRIRYRPPRLPRPRPRPWILPRP, the “shrunken log2 fold change” value was -0.482.

Turning to RRIRNRPPRLPRPRPRPGASPRP, the “shrunken log2 fold change” value came out at 0.412. With RRIRSRPPRLPRPRPRPNEHPRP the figure was -0.655; with RRIRERPPRLPRPRPRPIDWPRP, -0.0206; with RRIRIRPPRLPRPRPRPWETPRP, -0.0306.

Regarding RRIRSRPPRLPRPRPRPTWRPRP, the “shrunken log2 fold change” value amounted to 0.424. As for RRIRYRPPRLPRPRPRPGFPPRP, the “shrunken log2 fold change” value is -6.24e-05. As to RRIRPRPPRLPRPRPRPNRRPRP, the “shrunken log2 fold change” value was -0.0942. For the sequence RRIRWRPPRLPRPRPRPCAGPRP, the “shrunken log2 fold change” value came out at 0.0556. In the case of RRIRMRPPRLPRPRPRPHMLPRP it was -0.245; in that of RRIRDRPPRLPRPRPRPNVPPRP, 0.0123. Turning to RRIRPRPPRLPRPRPRPLGTPRP, the “shrunken log2 fold change” value was determined as 0.125.

For RRIRKRPPRLPRPRPRPHMSPRP, the “shrunken log2 fold change” value was 0.0205.

As for RRIRNRPPRLPRPRPRPQYHPRP, the “shrunken log2 fold change” value is -0.767. For RRIRYRPPRLPRPRPRPDFCPRP, the “shrunken log2 fold change” value was -0.228.

In the case of RRIRQRPPRLPRPRPRPHAPPRP, the “shrunken log2 fold change” value is -0.0421.

On to RRIRFRPPRLPRPRPRPIRQPRP, for which the “shrunken log2 fold change” value is -0.297. In the case of RRIRSRPPRLPRPRPRPERDPRP it was 0.138; in that of RRIRKRPPRLPRPRPRPAQQPRP, 0.344. With RRIRDRPPRLPRPRPRPMPFPRP the figure was 0.00571. In the case of RRIRRRPPRLPRPRPRPLGVPRP it was 0.238; in that of RRIRIRPPRLPRPRPRPDAVPRP, 0.0396; in that of RRIRPRPPRLPRPRPRPDVMPRP, 0.16. For the sequence RRIRSRPPRLPRPRPRPETMPRP, the “shrunken log2 fold change” value was determined as 0.205. With RRIRGRPPRLPRPRPRPCASPRP the figure was 0.557.

Turning to RRIRGRPPRLPRPRPRPFYKPRP, the “shrunken log2 fold change” value is -0.0686. With RRIRSRPPRLPRPRPRPSYTPRP the figure was -0.437; with RRIRLRPPRLPRPRPRPMATPRP, -0.187; with RRIRMRPPRLPRPRPRPKEGPRP, -0.01. As for RRIRNRPPRLPRPRPRPILEPRP, the “shrunken log2 fold change” value was 0.109. In the case of RRIRFRPPRLPRPRPRPEFTPRP it was 1.75.

Consider RRIRDRPPRLPRPRPRPGSWPRP, for which the “shrunken log2 fold change” value came out at 0.817. With RRIRHRPPRLPRPRPRPEAAPRP the figure was 0.83; with RRIRIRPPRLPRPRPRPHCRPRP, -0.341. In the case of RRIRGRPPRLPRPRPRPIYNPRP it was -0.185; in that of RRIRCRPPRLPRPRPRPVHKPRP, 0.287; in that of RRIRCRPPRLPRPRPRPKDSPRP, -0.198. With RRIRVRPPRLPRPRPRPMNDPRP, the “shrunken log2 fold change” value was -0.187. In the case of RRIRMRPPRLPRPRPRPAYGPRP it was -0.00861; in that of RRIRERPPRLPRPRPRPMICPRP, -0.115.

Regarding RRIRWRPPRLPRPRPRPEQVPRP, the “shrunken log2 fold change” value stood at 0.21.

Take RRIRIRPPRLPRPRPRPEMWPRP: the “shrunken log2 fold change” value turned out to be 0.0226. For RRIRLRPPRLPRPRPRPVKKPRP, the “shrunken log2 fold change” value stood at 0.031. With RRIRSRPPRLPRPRPRPIKKPRP the figure was 0.234; with RRIRIRPPRLPRPRPRPYNRPRP, -0.01.

RRIRCRPPRLPRPRPRPEAQPRP: the “shrunken log2 fold change” value was 0.704. Turning to RRIRFRPPRLPRPRPRPMCCPRP, the “shrunken log2 fold change” value is -0.429. As for RRIRIRPPRLPRPRPRPHHFPRP, the “shrunken log2 fold change” value is -0.313. With RRIRHRPPRLPRPRPRPMNGPRP the figure was -0.287.
